The values below come from article PMC12617493 (Science Advances, 2025).

First the molecules themselves.
B1: CIst2[590–946] (domain or fragment, S. cerevisiae)
chain: CSSHDDVANGIVPKHVVNVQNPPKQEVFEKIPSPEFNSNNEKELVQRKGSANEKLHQELGEKQPASSANGYEAHAATHANNDPSSLSSASSPSLSSSSSSSKTGVVKAVDNDTAGSAGKKPLATESTEKRNSLVKVPTVGSYGVAGATLPETIPTSKNYYLRFDEDGKSIRDAKSSAESSNATNNNTLGTESKLLPDGDAVDALSRKIDQIPKIAVTGGENNENTQAKDDAATKTPLIKDANIKPVVNAAVNDNQSKVSVATEQTKKTEVSTKNGPSRSISTKETKDSARPSNNNTTTTTTTDATQPHHHHHHHRHRDAGVKNVTNNSKTTESSSSSSAAKEKPKHKKGLLHKLKKKL
modifications: N-terminal cysteine covalently attached to MPB-PE of liposomes (in the experiments with MPB-PE–containing liposomes)
notes: extra N-terminal cysteine; With PM-like liposomes it is held by its C-terminal polybasic motif, not covalently; also called Ist2 IDR with an extra N-terminal cysteine; source: E. coli BL21-GOLD(DE3), purified (Glutathione Sepharose 4B, thrombin cleavage, Sephacryl S-200 HR); not shown: GST, N-terminal, cleaved
B3: Osh6 (natural protein, S. cerevisiae, UniProt Q02201 1-448, looked up)
chain: MGSKKLTVGSDSHRLSKSSFSSNKSSHSATKDQPIDTDDIDEDDESGHNIILNIISQLRPGCDLTRITLPTFILEKKSMLERVTNQLQFPEFLLQAHSEKDPLKRFLYVMKWYLAGWHIAPKAVKKPLNPVLGEYFTAYWDLPNKQQAYYISEQTSHHPPECAYFYMIPESSIRVDGVVIPKSRFLGNSSAAMMDGSTVLQFLDIKDGNGKPEKYVLTQPNVYVRGILFGKMRIELGDHMIIKSPNFQADIEFKTKGYVFGTYDAIEGTVKDYDGNAYYEISGKWNDVMYLKDLKQPRSSPKVFLDTHKESPLRPKVRPLSEQGEYESRKLWKKVTDALAVRNHPVATEEKFQIEDHQRQLAKKRIEDGVEFHPKLFRRSKPGEDLDYCIYKNIPVDEDPEKQIRSILQIAPILPGQQFTDKFFIPAFEKIKSQKKMIENEKQNPAKQ

Experiment [1] concerns the target B1.
The experiment “Osh6” has as its target B3. Put plainly: liposome flotation assay; Osh6 (0.75 μM) with or without an equivalent amount of CIst2[590–946] and PM-like liposomes POPC/POPS/PI(4,5)P2/NBD-PE (65:30:5:0.1); sucrose gradient, top fraction by SDS-PAGE. To be noted: both partners purified.
Another experiment has as its target T1, Osh6(H157A/H158A) (S. cerevisiae, UniProt Q02201 1-448, H157A | H158A).
T1 construct: also called Osh6(HH/AA)
T1 sequence (looked up): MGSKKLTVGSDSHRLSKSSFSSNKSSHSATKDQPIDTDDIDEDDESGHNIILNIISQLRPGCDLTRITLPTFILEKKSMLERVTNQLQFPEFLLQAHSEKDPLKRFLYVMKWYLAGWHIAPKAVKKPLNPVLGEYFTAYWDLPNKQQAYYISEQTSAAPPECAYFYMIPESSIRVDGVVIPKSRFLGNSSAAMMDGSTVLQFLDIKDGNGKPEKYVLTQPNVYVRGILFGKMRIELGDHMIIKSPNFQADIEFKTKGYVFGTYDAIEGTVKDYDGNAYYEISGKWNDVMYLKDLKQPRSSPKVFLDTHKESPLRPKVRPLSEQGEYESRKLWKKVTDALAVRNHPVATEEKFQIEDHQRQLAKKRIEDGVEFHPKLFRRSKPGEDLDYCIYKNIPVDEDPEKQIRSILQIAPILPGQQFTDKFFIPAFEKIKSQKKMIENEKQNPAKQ
Put plainly: pull-down; GST constructs (2.5 μM) immobilised on Glutathione Sepharose 4B beads; Osh6, its mutants, Osh4, ORD^Osh3 or ORD^ORP8 added at 2.5 μM; 50 mM tris pH 7.4, 120 mM NaCl, 1 mM MgCl2, 1% TX-100, 1 mM DTT, 10% glycerol; 25°C, 1 hour; bound fraction by SDS-PAGE. The following applies: both partners purified.

Experiment [2] addresses B1. The experiment is described as follows: cell-based or functional assay.

For the molecule “ORD^ORP8 (H514A/H515A) (domain or fragment)”, in the experiment with CIst2[590–946] [1], the Ist2-dependent (ER→PM)/(ER→O) NBD-PS transfer rate ratio R (Ist2), three liposome populations, LER and LPM connected by CIst2[590–946], FRET, 30°C turned out to be 1. For B1, in the experiment with Osh6, the binding result is “binds”.

B2: GST-Ist2[590–946] (domain or fragment, S. cerevisiae, UniProt P38250 590-946, looked up)
chain: SSHDDVANGIVPKHVVNVQNPPKQEVFEKIPSPEFNSNNEKELVQRKGSANEKLHQELGEKQPASSANGYEAHAATHANNDPSSLSSASSPSLSSSSSSSKTGVVKAVDNDTAGSAGKKPLATESTEKRNSLVKVPTVGSYGVAGATLPETIPTSKNYYLRFDEDGKSIRDAKSSAESSNATNNNTLGTESKLLPDGDAVDALSRKIDQIPKIAVTGGENNENTQAKDDAATKTPLIKDANIKPVVNAAVNDNQSKVSVATEQTKKTEVSTKNGPSRSISTKETKDSARPSNNNTTTTTTTDATQPHHHHHHHRHRDAGVKNVTNNSKTTESSSSSSAAKEKPKHKKGLLHKLKKKL
notes: also called Ist2 IDR; full-length Ist2 IDR; source: E. coli BL21-GOLD(DE3), purified (Glutathione Sepharose 4B, eluted with glutathione); not shown: GST, N-terminal, kept
Take B2: the binding result with Osh6(H157A/H158A) is “binds”. For the molecule B3, the “Ist2-dependent (ER→PM)/(ER→O) NBD-PS transfer rate ratio R_(Ist2), three liposome populations, LER and LPM connected by CIst2[590–946], FRET, 30°C” value in the experiment with CIst2[590–946] [2] came out at 7.6.

B4: Osh6(HH/AA)-3M (natural protein, S. cerevisiae, UniProt Q02201 1-448, looked up)
chain: MGSKKLTVGSDSHRLSKSSFSSNKSSHSATKDQPIDTDDIDEDDESGHNIILNIISQLRPGCDLTRITLPTFILEKKSMLERVTNQLQFPEFLLQAHSEKDPLKRFLYVMKWYLAGWHIAPKAVKKPLNPVLGEYFTAYWDLPNKQQAYYISEQTSAAPPECAYFYMIPASSIRVDGVVIPKSRFLGNSSAAMMDGSTVLQFLDIKDGNGKPEKYVLTQPNVYVRGILFGKMRIELGDHMIIKSPNFQADIEFKTKGYVFGTYDAIEGTVKDYDGNAYYEISGKWNDVMYLKDLKQPRSSPKVFLDTHKESPLRPKVRPLSEQGEYESRKLWKKVTDALAVRNHPVATEEKFQIEDHQRQLAKKRIEDGVEFHPKLFRRSKPGEDLDYCIYKNIPVDEDPEKQIRSILQIAPILPGAQFIDKFFIPAFEKIKSQKKMIENEKQNPAKQ
On to B4, for which the “Ist2-dependent (ER→PM)/(ER→O) NBD-PS transfer rate ratio R_(Ist2), three liposome populations, LER and LPM connected by CIst2[590–946], FRET” value in the experiment with CIst2[590–946] [2] is about 1.
